Numbering of substitutions follows the chain as printed. Blank lines part the entries; values can stand above or below the molecule they belong to.
Columns and labels:
[1] = Chen Z et al., 1997; cited from earlier work
basophils = assay: Basophil Activation Test; assay type: cell-based, human; details: non-latex allergic control subject N2
Method: FIG. 9 is a graphical representation of the basophil Activation Test on a latex allergic donor. Whole blood from a latex allergic, Hev b 6 sensitized subject was incubated with latex allergens. The cells were stained with FITC labelled anti-human IgE polyclonal antibodies and a PE labelled monoclonal anti-human CD63 antibody. Cells were analysed by flow cytometry defining basophils on the basis of scatter (A) and high IgE staining (B). The percentage of activated basophils expressing CD63 was determined (C).
The Basophil Activation Test was performed on whole blood from (A) non-latex allergic subject N2; (B) latex-allergic subject A7; (C) latex-allergic subject A8 and (D) latex-allergic subject A10. Antigens: latex glove extract (GE), hevein peptide (hevein), rHev b 6, mutant rHev b 6 (MU rHev b 6), sulphonated rHev b 6, (sul. rHev b 6), rHev b 5, KLH and house dust mite extract (HDM). All allergens were used at 10 μg/ml except for rHev b 6 and mutant rHev b 6 which were used at 0.1, 1 and 10 μg/ml. The cut-off for positive was set at the level of activated basophils after incubation in stimulation buffer alone (no antigen, horizontal line). A plus symbol (+) indicates antigen to which a subject has either a positive clinical history of allergy and/or a positive reading on an allergen-specific IgE ELISA.
A basophil activation assay based on flow cytometry was used to quantify the activation of basophils after incubation with various allergens. This assay was modified from Paris-Kohler A, Demoly P, Persi L, Lebel B, Bousquet J, Arnoux B. In vitro diagnosis of cypress pollen allergy by using cytofluorimetric analysis of basophils (Basotest). J Allergy Clin Immunol 2000; 105:339-45. Whole blood was collected in 6 ml heparinised vacutainers (Greiner). 100 μl aliquots were preincubated with stimulation buffer (20 mM Hepes, 133 mM NaCl, 5 mM KCl, 7 mM CaCl2, 3.5 mM MgCl2, 1 mg/ml BSA, 20 μl/ml heparin, pH 7.4) containing 2 ng/ml IL-3, for 10 min at 37° C., to increase the sensitivity of the assay. Samples were incubated for 20 min at 37° C. with 100 μl of stimulation buffer alone or stimulation buffer containing either rabbit anti-human IgE (Dako) at 1 in 500 dilution, 2 μM N-fMLP (Sigma, Mo, USA), crude allergen extracts, recombinant latex allergens or Keyhole Limpet Haemocyanin (KLH) (Sigma, Mo, USA). Basophil activation was stopped by incubating at 4° C. for 5 min. Normal goat serum (10 μl) was added to each tube to block non-specific binding of the detection antibody (goat anti-human IgE-FITC) and incubated for 10 min at 4° C. Samples were incubated with goat anti-human IgE-FITC (Caltag, Birmingham, Calif.) at a dilution of 1 in 2.5, and mouse anti-human CD63-R-Phycoerythrin (PE; Caltag, Birmingham, Calif.) at a dilution of 1 in 20, in a 20 μl volume of wash buffer (20 mM HEPES, 133 mM NaCl, 5 mM KCl, 0.27 mM EDTA, pH7.3). RBC were lysed by the addition of 2 ml FACS lysing solution (39 mM NH4Cl, 2.5 mM KHCO3, 0.2 mM EDTA) and incubation for 10 min at room temperature. Cells were centrifuged (250 g, 5 min at 4° C.), resuspended in 3 ml wash buffer, and centrifuged as before. Pellets were resuspended in 200 μl wash buffer, and analysed by flow cytometry (FACScalibur, Becton Dickinson) within 2 h of the experiment. 7AAD (Sigma, Mo, USA) was added to the samples 5 min prior to FACS analysis.

[2] = molecular target: serum IgE of a latex-allergic, Hev b 5 positive subject; assay: non-specific inhibition ELISA: serum preincubated with inhibitor, IgE binding to rHev b 5 read (data not shown)
[3] = molecular target: serum IgE of latex-allergic subject A8; assay: inhibition ELISA of IgE binding to plate-coated rHev b 6, inhibitor at 125 µg/ml (FIG. 8D)
[4] = molecular target: IgE from the sera of latex allergic, Hev b 6 sensitised subjects; assay: inhibition ELISA of IgE binding to plate-coated rHev b 6, estimated
[5] = molecular target: serum IgE of latex-allergic subject A6; assay: inhibition ELISA of IgE binding to plate-coated rHev b 6, soluble inhibitor 0.0016-125 µg/ml (FIG. 8C)
[6] = molecular target: serum IgE of latex-allergic subject A7; assay: inhibition ELISA of IgE binding to plate-coated rHev b 6, soluble inhibitor 0.0016-125 µg/ml (FIG. 8B)
[7] = molecular target: IgE from the sera of latex allergic, Hev b 6 sensitised subjects; assay: inhibition ELISA of IgE binding to plate-coated rHev b 6, ratio of the 30% inhibition concentrations

Molecule: Hevein: 4.7 kDa hydrophilic protein which forms the N-terminus of pro-hevein (EQCGRQAGGKLCPNNLCCSQWGWCGSTDEYCSPDHNCQSNCKD)
patients with latex allergy reacting on skin testing [1]: 81%

Molecule: hevein peptide: 43-mer hevein peptide synthesised according to the prohevein amino acid sequence by Mimotopes (EQCGRQAGGKLCPNNLCCSQWGWCGSTDEYCSPDHNCQSNCKD)
basophil activation (basophils): negligible

B1: rHev b 5: recombinant latex allergen Hev b 5 (protein)
chain: ASVEVESAATALPKNETPEVTKAEETKTEEPAAPPASEQETADATPEKEEPTAAPAEPEAPAPETEKAEEVEKIEKTEEPAPEADQTTPEEKPAEPEPVAEEEPKHETKETETEAPAAPAEGEKPAEEEKPITEAAETATTEVPVEKTEE
basophil activation (basophils): negligible

percent inhibition (non-specific control) [2]: < 20%
percent inhibition [3]: 100%
percent inhibition [5]: 100%
percent inhibition [6]: 100%
B2: Recombinant Hev b 6 (rHev b 6) (protein, not shown: small tags and cut ends)
chain: EQCGRQAGGKLCPNNLCCSQWGWCGSTDEYCSPDHNCQSNCKDSGEGVGGGSASNVLATYHLYNSQDHGWDLNAASAYCSTWDANKPYSWRSKYGWTAFCGPVGAHGQSSCGKCLSVTNTGTGAKTTVRIVDQCSNGGLDLDVNVFRQLDTDGKGYERGHITVNYQFVDCGDSFNPLFSVMKSSVIN
inhibitor concentration giving 30% inhibition of IgE binding [4]: 0.01 µg/mL

percent inhibition (non-specific control) [2]: < 20%
maximum percent inhibition [3]: 32%
B3: mutant rHev b 6 (cysteine to alanine substitution at amino acid 3) (protein, not shown: small tags and cut ends)
chain: B2 chain with C3A
inhibitor concentration giving 30% inhibition of IgE binding [4]: 125 µg/mL
fold more inhibitor required than rHev b 6 [7]: 12500 fold
